Measured values reported in PMC8586017, “CENP-V is required for proper chromosome segregation through interaction with spindle microtubules in mouse oocytes” (Nature Communications, 2021).

Biological target: taxol-stabilised ATTO 647N-labelled microtubules (UniProt P02550 1-451, ATTO 647N label (which chain and residues not stated) | ATTO 647N label (which chain and residues not stated))
Experiment: TIRF microscopy, saturation binding curve; CENP-V-eGFP titrated onto surface-bound taxol-stabilised ATTO 647N-labelled microtubules; BRB80 (80 mM PIPES pH 6.8, 1 mM MgCl2, 1 mM EGTA) with 10 µM taxol, casein, DTT; 25 °C, 15 m equilibration; GFP intensity per micrometer of at least 100 microtubules per condition; Hill (cooperative) fit
Conditions: both partners purified

B1: His6-CENP-V-eGFP (natural protein, UniProt Q9CXS4 1-252, looked up)
chain: MRRTRSAVATGPREQRRSGATGGLSGGESRAQRSRSRTRAGAGGGGGAVGPQPSAKPRPKPPPRAQEAAAEEPPPAVTPAASVSALDLGEQRERWETFQKRQRLSFEGAAKLLLDTFEYQGLVKHTGGCHCGAVRFEVWASADLHIFDCNCSICKKKQNRHFIVPASRFKLLKGAESITTYTFNTHKAQHTFCKRCGVQSFYTPRSNPGGFGIAPHCLDEGTVRSVVTEEFNGSDWERAMKEHKTIKNMSKE
notes: CENP-V (centromere protein V); also called CENP-V-GFP; recombinant CENP-V-eGFP
  Kd: 53.2 ± 4.5 nM
